# Measured values taken from the supplement of paper PMC12042874.
# ± gives the uncertainty stated by the source.
# Assay: amyloid nucleation score (Sup35N fusion, yeast selection) (log enrichment); library NNK3; higher = more nucleation; inactive = no reads after selection
# Method in brief: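 Nucleation score is defined as the DiMSum log enrichment of output over input reads, with centring on the mode score of non-aggregating sequences. A minimum of 100 input reads was required for each sequence. Reads came from Illumina sequencing of plasmid inserts from psi-negative yeast expressing Sup35N fused to peptides of 20 random codons, induced with 100 μM copper sulfate for 24 hours and grown 7 days at 30°C on medium lacking adenine and uracil.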
row,Substance,amyloid nucleation score
1,YGVESAYKCRNVYFLYWCML,0.511 ± 0.13
2,YGVYINEAVEVRGPHAYMTS,inactive
3,YHCSLQIFVLNSWMSSYKWS,1.86 ± 0.098
4,YHGVLRWSKSTFAAHYPVTA,inactive
5,YHLDIKNFHTLCWGPYFTSM,0.789 ± 0.25
6,YHRRLSTVLMGCMNRGLNYL,inactive
7,YIAGFQFCSIIFQRRTVQLL,inactive
8,YICVKYEVYNFTFYFVSGFW,inactive
9,YIFGNFRHTSGGYCVLSVLK,inactive
10,YIHIY,inactive
11,YINSATRFDKFM,inactive
12,YITMNVHSRDASVRWLDF,inactive
13,YIVST,inactive
14,YIWLKGNIRRSQWLLSLPFM,inactive
15,YIYEEASK,inactive
16,YIYICLVFMSRCTKLYIELG,inactive
17,YKFSVTTL,inactive
18,YKGDKFVRCSVW,inactive
19,YKRGFMKRYANAEASFMSYW,inactive
20,YKTYKYERLCIFVLSQRESI,inactive
21,YKWSLTTRRTVRHLRED,inactive
22,YLAPHMSATVVLDNEFGPES,inactive
23,YLDFVFGLRTRDNYLWVRPT,inactive
24,YLDSSSS,inactive

row,Substance,amyloid nucleation score
1,YLDVPTCDLSMPCYDINNNL,inactive
2,YLFTFVWQTTSLINVIVALI,inactive
3,YLIGLRCWCSL,inactive
4,YLKWTNVVKMGHSKSSTE,1.29 ± 0.1
5,YLLLARIEKRFGFFVISDPG,inactive
6,YLPFFEWRVQGRVFEVSMYY,inactive
7,YLPSSSEFR,inactive
8,YLSDVLSLWCSVQIWSGLYC,inactive
9,YLSVPVF,inactive
10,YLVFFA,inactive
11,YLVTWWMLSHKLTHMCFSGR,-0.024 ± 0.69
12,YMAAVQSTKRNFMHCNKVGS,inactive
13,YMHGVWRWVVYRIFLYGRQA,inactive
14,YMLLSVDILSYMPMTVVAEQ,inactive
15,YMLSGPRWFV,inactive
16,YMQQSR,inactive
17,YMTGNSSSWSTFGWDKRFGI,1.03 ± 0.09
18,YMYFKVDVDWRSPGMTARLL,inactive
19,YNCRTLNCNYQVYYFVFLSD,3.15 ± 0.062
20,YNDWQKEMCIITICVL,inactive
21,YNGYALRF,inactive
22,YNNVCSEAEWS,inactive
23,YNYLV,inactive
24,YPGMQEYVLGWNVWREK,inactive

row,Substance,amyloid nucleation score
1,YPKRMCDRHS,inactive
2,YQDLP,inactive
3,YQNGLARWTWKYRNVINVLS,inactive
4,YQWNIMLKIDCSIDVVVVSN,0.827 ± 0.27
5,YQYCSISKHVFEWYGTSWMG,inactive
6,YQYPVVDKRMYIFTTMFYFT,2.57 ± 0.082
7,YRFLMLITYYFCIV,2.11 ± 0.071
8,YRFYSNNPTRCS,inactive
9,YRGPVGIDSGVRS,inactive
10,YRGVDLYVGVKLIRTYRVVR,inactive
11,YRILRL,inactive
12,YRLCRGFNSFI,inactive
13,YRLVSLYFVLLFFGA,inactive
14,YRNNAFPSEMHPIGRLEYAV,0.456 ± 0.15
15,YRNVGHVCFDVEYPRVLFFA,inactive
16,YRPSIRLTGCLSSLYTLFYG,1.92 ± 0.062
17,YRSKNFMIQRWTRVVLRAWM,inactive
18,YRSNEFISD,inactive
19,YRVKPFKWKYARRRLVIRWV,inactive
20,YRWGISLIEMEQGGVVF,inactive
21,YRYRACSSNFYVTVFGQLHV,2.33 ± 0.063
22,YSCNKCVDEMRVRRGIERGV,inactive
23,YSCVEDSGCVCKNPLVISEF,inactive
24,YSESIFIV,inactive

row,Substance,amyloid nucleation score
1,YSGGKGSGRELRYTLLVRGT,inactive
2,YSGMGCFSAWSMW,inactive
3,YSNNILFAQEISQPYGHMFP,inactive
4,YSSSC,inactive
5,YSSSFIWMAYESIYFFLIFI,inactive
6,YSVCVNAWGLSTLSTLWCTY,inactive
7,YSVLLCVALRLVNNVA,inactive
8,YSVLLLLDSYGAWSGAGGE,inactive
9,YSVSEIRKSHLWITINMAVF,inactive
10,YSWDILSLLRGKETQACICY,inactive
11,YSWSMLL,0.077 ± 0.54
12,YTALHWLYFVSCKFDEKVQW,inactive
13,YTDWGYDLRNGAGNGYIT,inactive
14,YTILVCYSAGVAYYNKGLVR,inactive
15,YTLGHRTPMLIYDVAGRPNY,inactive
16,YTRNKQDIWGGNHGSRCQNG,inactive
17,YTVGCSYMVWVVFNFFYFSE,1 ± 0.14
18,YTVILRVRGSMSAMQSMKFS,inactive
19,YTVTASQTYFYSCRDGFAFS,inactive
20,YTWYCFCRC,2.44 ± 0.055
21,YVCGQSG,inactive
22,YVDIY,inactive
23,YVEKVYYCSVRLRYAFLDFD,inactive
24,YVELSTYCSRWLVLIVDYLE,inactive

row,Substance,amyloid nucleation score
1,YVFGKLSAFFFVRFNLQGLL,inactive
2,YVFKYVEEVSHFSLFLWTKS,inactive
3,YVFVRS,inactive
4,YVGFLSSCFF,1.19 ± 0.14
5,YVITQQSSFSVTLYSSINFC,0.625 ± 0.33
6,YVIVLNR,2.3 ± 0.069
7,YVIVYS,inactive
8,YVMHWSVAEVLRSLCVNHVR,inactive
9,YVNFFVKVSV,inactive
10,YVPIRSFVGEVLGSGDR,0.157 ± 0.59
11,YVQIGFILIFISNYLSCESA,1.8 ± 0.071
12,YVSSAILRNRVLCHCYFTML,inactive
13,YVTSNSVDRTIKCSAFILIC,inactive
14,YVWIDTMGL,inactive
15,YWFFIIIFNNIHSADGFIVS,inactive
16,YWPIHSSTAETDVTVRTRSY,1.01 ± 0.14
17,YWSNPYSYKFYEFMIHTALQ,inactive
18,YWVRNVLNS,inactive
19,YYGFYTNYFMCGV,2.77 ± 0.062
20,YYGLAVWSERNVRWMGEGEA,inactive
21,YYGVDHLLNWIPFACTARLG,inactive
22,YYIIWRFQGIVLKYGTALTF,inactive
23,YYLCLYLSPLLL,1.28 ± 0.11
